test system: Escherichia coli TOP10; test: shrunken log2 fold change of peptide-encoding DNA abundance (4.5 h post-induction vs induction); higher = less antimicrobial activity (less host growth inhibition); details: time post-induction: 4.5 h; library: site-saturation at positions 5, 18, 19, 20
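Further: peptides expressed intracellularly from a pBAD plasmid library in pooled LB shake-flask culture, induced with 0.3% L-arabinose, DNA abundance read by NGS, three biological replicates, DESeq2 with apeglm shrinkage.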

| Sequence | shrunken log2 fold change |
| --- | --- |
| RRIRMRPPRLPRPRPRPYPVPRP | -0.237 |
| RRIRCRPPRLPRPRPRPNWRPRP | 0.437 |
| RRIRTRPPRLPRPRPRPENWPRP | 0.157 |
| RRIRGRPPRLPRPRPRPMASPRP | 0.176 |
| RRIRMRPPRLPRPRPRPFEVPRP | -0.0748 |
| RRIRARPPRLPRPRPRPFALPRP | 0.185 |
| RRIRCRPPRLPRPRPRPNIIPRP | 0.796 |
| RRIRCRPPRLPRPRPRPLLYPRP | -0.572 |
| RRIRVRPPRLPRPRPRPCLIPRP | -0.641 |
| RRIRKRPPRLPRPRPRPCAIPRP | 0.101 |
| RRIRDRPPRLPRPRPRPCGLPRP | 0.371 |
| RRIRNRPPRLPRPRPRPRPFPRP | 0.472 |
| RRIRMRPPRLPRPRPRPGPFPRP | 0.222 |
| RRIRCRPPRLPRPRPRPTAMPRP | -0.113 |
| RRIRVRPPRLPRPRPRPGTRPRP | -0.0152 |
| RRIRTRPPRLPRPRPRPFAKPRP | -0.0867 |
| RRIRFRPPRLPRPRPRPHSPPRP | -0.389 |
| RRIRWRPPRLPRPRPRPTPQPRP | 1.63 |
| RRIRARPPRLPRPRPRPTASPRP | 0.74 |
| RRIRVRPPRLPRPRPRPLGGPRP | 0.27 |
| RRIRWRPPRLPRPRPRPVCKPRP | 0.643 |
| RRIRMRPPRLPRPRPRPFIKPRP | -0.432 |
| RRIRVRPPRLPRPRPRPWVHPRP | -0.306 |
| RRIRLRPPRLPRPRPRPNNRPRP | -0.79 |
| RRIRSRPPRLPRPRPRPCWGPRP | 0.109 |

| Sequence | shrunken log2 fold change |
| --- | --- |
| RRIRIRPPRLPRPRPRPGMKPRP | -0.126 |
| RRIRKRPPRLPRPRPRPVLLPRP | 0.122 |
| RRIRIRPPRLPRPRPRPFHHPRP | 0.0886 |
| RRIRYRPPRLPRPRPRPAPRPRP | 0.57 |
| RRIRCRPPRLPRPRPRPVNTPRP | -0.259 |
| RRIRVRPPRLPRPRPRPNCNPRP | -0.273 |
| RRIRPRPPRLPRPRPRPCWNPRP | -0.0418 |
| RRIRGRPPRLPRPRPRPQKEPRP | 0.0631 |
| RRIRCRPPRLPRPRPRPLCWPRP | 0.132 |
| RRIRTRPPRLPRPRPRPYDCPRP | -0.304 |
| RRIRIRPPRLPRPRPRPRTIPRP | -0.141 |
| RRIRIRPPRLPRPRPRPDPLPRP | -0.326 |
| RRIRTRPPRLPRPRPRPITNPRP | -0.489 |
| RRIRARPPRLPRPRPRPQVAPRP | 0.591 |
| RRIRIRPPRLPRPRPRPVDDPRP | -0.0762 |
| RRIRHRPPRLPRPRPRPCHIPRP | -0.454 |
| RRIRRRPPRLPRPRPRPHQDPRP | 0.0414 |
| RRIRVRPPRLPRPRPRPRMDPRP | -0.371 |
| RRIRCRPPRLPRPRPRPEGAPRP | 0.766 |
| RRIRSRPPRLPRPRPRPPPRPRP | 1.09 |
| RRIRGRPPRLPRPRPRPTWLPRP | 2.72 |
| RRIRHRPPRLPRPRPRPMMKPRP | 0.0118 |
| RRIRHRPPRLPRPRPRPGYYPRP | -0.318 |
| RRIRIRPPRLPRPRPRPVHWPRP | 0.0203 |
| RRIRNRPPRLPRPRPRPHSIPRP | -0.209 |

| Sequence | shrunken log2 fold change |
| --- | --- |
| RRIRTRPPRLPRPRPRPTWEPRP | 0.95 |
| RRIRSRPPRLPRPRPRPESLPRP | 0.0154 |
| RRIRWRPPRLPRPRPRPACGPRP | 0.508 |
| RRIRCRPPRLPRPRPRPIMPPRP | -0.11 |
| RRIRLRPPRLPRPRPRPMIVPRP | -0.199 |
| RRIRCRPPRLPRPRPRPKPLPRP | 0.12 |
| RRIRYRPPRLPRPRPRPHMNPRP | -1.2 |
| RRIRNRPPRLPRPRPRPGINPRP | -0.253 |
| RRIRRRPPRLPRPRPRPDNFPRP | 0.028 |
| RRIRKRPPRLPRPRPRPCRKPRP | 0.0153 |
| RRIRWRPPRLPRPRPRPRILPRP | 0.188 |
| RRIRGRPPRLPRPRPRPVMGPRP | 0.289 |
| RRIRERPPRLPRPRPRPCHIPRP | -0.439 |
| RRIRARPPRLPRPRPRPINPPRP | 0.0479 |
| RRIRHRPPRLPRPRPRPNLTPRP | -0.588 |
| RRIRWRPPRLPRPRPRPFCNPRP | -0.24 |
| RRIRKRPPRLPRPRPRPNDVPRP | 0.117 |
| RRIRCRPPRLPRPRPRPVQAPRP | 0.224 |
| RRIRSRPPRLPRPRPRPCKRPRP | -0.326 |
| RRIRQRPPRLPRPRPRPHYMPRP | -0.474 |
| RRIRGRPPRLPRPRPRPVILPRP | -0.33 |
| RRIRYRPPRLPRPRPRPHMGPRP | 3.73 |
| RRIRHRPPRLPRPRPRPPAAPRP | 0.0555 |
| RRIRVRPPRLPRPRPRPCFYPRP | -0.511 |
| RRIRFRPPRLPRPRPRPHFSPRP | -0.24 |

| Sequence | shrunken log2 fold change |
| --- | --- |
| RRIRTRPPRLPRPRPRPCPVPRP | -0.175 |
| RRIRYRPPRLPRPRPRPVPIPRP | -0.297 |
| RRIRERPPRLPRPRPRPIETPRP | -0.00369 |
| RRIRIRPPRLPRPRPRPKPLPRP | -0.191 |
| RRIRTRPPRLPRPRPRPCVFPRP | -0.215 |
| RRIRQRPPRLPRPRPRPFNPPRP | -0.077 |
| RRIRSRPPRLPRPRPRPSDYPRP | -0.87 |
| RRIRRRPPRLPRPRPRPCLAPRP | 0.242 |
| RRIRMRPPRLPRPRPRPHEFPRP | 0.224 |
| RRIRCRPPRLPRPRPRPSPLPRP | 0.21 |
| RRIRIRPPRLPRPRPRPQVEPRP | -0.127 |
| RRIRSRPPRLPRPRPRPQSMPRP | -0.384 |
| RRIRCRPPRLPRPRPRPREMPRP | 0.245 |
| RRIRNRPPRLPRPRPRPVFMPRP | -0.181 |
| RRIRDRPPRLPRPRPRPDGSPRP | 0.0891 |
| RRIRRRPPRLPRPRPRPMARPRP | 0.0728 |
| RRIRVRPPRLPRPRPRPNIMPRP | -0.512 |
| RRIRIRPPRLPRPRPRPTERPRP | -0.0197 |
| RRIRLRPPRLPRPRPRPASIPRP | 0.0291 |
| RRIRFRPPRLPRPRPRPRGPPRP | 0.763 |
| RRIRNRPPRLPRPRPRPRTLPRP | -0.0666 |
| RRIRQRPPRLPRPRPRPDNRPRP | -0.00104 |
| RRIRFRPPRLPRPRPRPDLLPRP | 0.118 |
| RRIRLRPPRLPRPRPRPCNQPRP | -1.15 |
| RRIRNRPPRLPRPRPRPNMHPRP | -0.433 |

| Sequence | shrunken log2 fold change |
| --- | --- |
| RRIRERPPRLPRPRPRPVELPRP | -0.0276 |
| RRIRERPPRLPRPRPRPNHVPRP | -0.25 |
| RRIRMRPPRLPRPRPRPTLPPRP | 0.248 |
| RRIRVRPPRLPRPRPRPKYVPRP | -0.163 |
| RRIRGRPPRLPRPRPRPLHDPRP | 0.748 |
| RRIRKRPPRLPRPRPRPPEIPRP | 0.131 |
| RRIRNRPPRLPRPRPRPYWFPRP | -0.124 |
| RRIRKRPPRLPRPRPRPTNTPRP | 1.79 |
| RRIRVRPPRLPRPRPRPHGNPRP | -0.0331 |
| RRIRKRPPRLPRPRPRPWGHPRP | -0.0374 |
| RRIRWRPPRLPRPRPRPLSKPRP | -0.0363 |
| RRIRYRPPRLPRPRPRPHIQPRP | -1.03 |
| RRIRKRPPRLPRPRPRPEPLPRP | 0.636 |
| RRIRYRPPRLPRPRPRPDDYPRP | 0.0219 |
| RRIRFRPPRLPRPRPRPCYKPRP | -0.228 |
| RRIRMRPPRLPRPRPRPKKPPRP | 0.102 |
| RRIRKRPPRLPRPRPRPKRKPRP | 0.89 |
| RRIRTRPPRLPRPRPRPKNIPRP | -0.627 |
| RRIRCRPPRLPRPRPRPHWDPRP | -0.306 |
| RRIRARPPRLPRPRPRPHNWPRP | 0.129 |
| RRIRQRPPRLPRPRPRPQLQPRP | 0.112 |
| RRIRPRPPRLPRPRPRPLLRPRP | 1.73 |
| RRIRCRPPRLPRPRPRPAQFPRP | 0.0313 |
| RRIRKRPPRLPRPRPRPYPLPRP | -0.095 |
| RRIRQRPPRLPRPRPRPYNSPRP | -0.198 |

| Sequence | shrunken log2 fold change |
| --- | --- |
| RRIRHRPPRLPRPRPRPRATPRP | 0.554 |
| RRIRFRPPRLPRPRPRPDGCPRP | -0.0502 |
| RRIRQRPPRLPRPRPRPKYLPRP | -0.0386 |
| RRIRPRPPRLPRPRPRPFFFPRP | 0.279 |
| RRIRWRPPRLPRPRPRPIGHPRP | 0.0282 |
| RRIRSRPPRLPRPRPRPTSVPRP | 0.00616 |
| RRIRDRPPRLPRPRPRPSNIPRP | -0.182 |
| RRIRCRPPRLPRPRPRPHYIPRP | -0.0818 |
| RRIRHRPPRLPRPRPRPIEKPRP | -0.00776 |
| RRIRQRPPRLPRPRPRPVFYPRP | -0.147 |
| RRIRDRPPRLPRPRPRPVHQPRP | -0.0516 |
| RRIRTRPPRLPRPRPRPGRCPRP | 0.178 |
| RRIRMRPPRLPRPRPRPRCHPRP | 0.133 |
| RRIRCRPPRLPRPRPRPTWSPRP | 0.346 |
| RRIRTRPPRLPRPRPRPHSEPRP | -0.0681 |
| RRIRPRPPRLPRPRPRPHYEPRP | -0.206 |
| RRIRYRPPRLPRPRPRPKCDPRP | -0.529 |
| RRIRRRPPRLPRPRPRPGCCPRP | 0.589 |
| RRIRLRPPRLPRPRPRPTFVPRP | -0.162 |
| RRIRYRPPRLPRPRPRPWSVPRP | -0.554 |
| RRIRIRPPRLPRPRPRPEPFPRP | 0.126 |
| RRIRDRPPRLPRPRPRPYVLPRP | -0.347 |
| RRIRFRPPRLPRPRPRPLGDPRP | 0.4 |
| RRIRVRPPRLPRPRPRPAAFPRP | 0.227 |
| RRIRWRPPRLPRPRPRPVERPRP | 0.398 |
